Data on 1 substance can be found in patent US10864269B2, “Therapeutic combinations comprising anti-CD73 antibodies and uses thereof” (MedImmune Limited, priority 2014, dated 2020).

pKd: −log10 of the molar value.

The target in assay [1] is T1, CD73 on the cell surface of MDA-MB-231 cells (Homo sapiens, UniProt P21589).
T1 construct: native CD73 expressed on human, murine, and cynomolgus monkey cell lines; endogenous in cells; host or cells: MDA-MB-231
T1 sequence (P21589 27-549): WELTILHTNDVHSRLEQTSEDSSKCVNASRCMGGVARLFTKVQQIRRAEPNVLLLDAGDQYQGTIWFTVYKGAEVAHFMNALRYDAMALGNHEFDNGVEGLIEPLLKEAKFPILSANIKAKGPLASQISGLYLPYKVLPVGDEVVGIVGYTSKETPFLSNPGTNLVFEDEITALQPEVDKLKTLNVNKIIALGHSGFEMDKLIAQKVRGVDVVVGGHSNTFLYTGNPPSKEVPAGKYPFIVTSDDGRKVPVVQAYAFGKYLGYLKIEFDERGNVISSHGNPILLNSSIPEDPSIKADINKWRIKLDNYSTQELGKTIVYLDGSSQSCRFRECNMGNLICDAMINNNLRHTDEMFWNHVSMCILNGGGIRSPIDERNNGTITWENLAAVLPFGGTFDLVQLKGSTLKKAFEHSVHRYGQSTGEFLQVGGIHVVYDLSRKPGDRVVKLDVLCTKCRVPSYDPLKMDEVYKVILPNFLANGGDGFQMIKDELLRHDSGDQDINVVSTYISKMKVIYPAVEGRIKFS
Put plainly: Antibody-mediated internalization or shedding of CD73 by flow cytometry. The format is cell-based. To be noted: for Percentage of CD73 remaining on the cell surface: 100 nM antibody, 37° C. On the procedure:
Antibody-mediated internalization or shedding of CD73 was assessed by flow cytometry. MDA-MB-231 cells were incubated in presence of 100 nM MEDI9447 or negative control antibody R347 in growth medium at 37° C. for 0-4 hours. Cells were washed and resuspended in ice-cold PBS. The presence of CD73 on the cell surface was detected by adding 10 nM DyLight488-labeled detection antibody. Cells were incubated for 15 minutes, washed and analyzed by flow cytometry. The detection antibody binds to an epitope of CD73 that is different from the MEDI9447 epitope and both antibodies simultaneously bind to CD73 without interference.
In general terms: In flow cytometry, cells or beads pass a laser one at a time.

The test system of a further assay is Cynomolgus CD73 ECD. Put plainly: Surface plasmon resonance (ProteOn), cynomolgus CD73. In kind it is binding. To be noted: SPR. As to the method: A ProteOn XPR36 instrument was used to characterize binding of MEDI9447 to human, murine, and cynomolgus CD73 ECD. MEDI9447 was affinity-captured using an anti-human Fc antibody. CD73 ECD was in the mobile phase. The association and dissociation of CD73 to MEDI9447 could be accurately described with the Langmuir 1:1 model.
(§1) The affinity of enhanced anti-CD73 antibodies (in IgG1-TM format) to human, murine, and cynomolgus CD73 was determined by flow cytometry and surface plasmon resonsance (SPR) (Table 13). The enhanced antibodies had pM affinity to cellular and recombinant CD73 from the three species.
In general terms: SPR reads the build-up and loss of mass on a sensor chip optically.

Another assay relates to native CD73, MK-1 cells. As to the kind of experiment: Flow cytometry binding to native CD73, MK-1 cells. To be noted: as measured by flow cytometry; read-out: KD, CD73 on the surface of cynomolgus MK-1 cells. As to the method:
(§2) Binding of MEDI9447 to native CD73 expressed on human, murine, and cynomolgus monkey cell lines was characterized by flow cytometry. The cells were incubated with various concentrations of MEDI9447 and antibody binding was monitored with and fluorophore-labeled anti-human Fc antibody. A plot of the median fluorescence intensity as a function of the MEDI9447 concentration was fitted nonlinearly using a one-site binding isotherm model to calculate the equilibrium dissociation constant.
as §1
(§3) All flow cytometry experiments were run at 4C and reagents were prepared in PBS/1% FBS buffer. 10,000 cells were incubated with test antibody in 50 uL volume for 4 hours. Cells were washed twice and incubated in 50 uL goat anti-human IgGFc-AlexaFluor647 conjugate for 15 minutes. Cells were washed, resuspended in buffer supplemented with Dapi, and analyzed on a flow cytometer. […] For the determination of KD values, a plot of the median fluorescence intensity as a function of test antibody concentration was fitted nonlinearly using a one site binding isotherm model.

In the next assay the target is T2, native CD73, 4T1 cells (Mus musculus, UniProt Q61503).
T2 construct: native CD73 expressed on human, murine, and cynomolgus monkey cell lines; endogenous in cells; host or cells: 4T1
T2 sequence (Q61503 29-551): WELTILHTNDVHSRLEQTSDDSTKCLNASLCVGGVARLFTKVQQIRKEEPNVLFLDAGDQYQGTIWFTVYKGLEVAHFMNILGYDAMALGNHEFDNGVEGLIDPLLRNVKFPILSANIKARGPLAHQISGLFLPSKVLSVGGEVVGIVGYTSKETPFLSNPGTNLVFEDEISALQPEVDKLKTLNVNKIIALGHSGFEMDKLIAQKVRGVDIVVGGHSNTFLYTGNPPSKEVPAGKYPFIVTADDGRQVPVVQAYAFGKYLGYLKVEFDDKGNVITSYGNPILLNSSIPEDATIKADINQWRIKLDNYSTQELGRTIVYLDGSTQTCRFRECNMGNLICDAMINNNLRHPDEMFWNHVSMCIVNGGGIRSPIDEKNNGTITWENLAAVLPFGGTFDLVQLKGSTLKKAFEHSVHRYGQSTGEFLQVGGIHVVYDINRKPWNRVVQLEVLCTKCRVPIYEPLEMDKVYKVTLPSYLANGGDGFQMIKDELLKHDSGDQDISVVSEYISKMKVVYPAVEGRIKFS
Put plainly: Flow cytometry binding to native CD73, 4T1 cells. The conditions noted are these: as measured by flow cytometry; read-out: KD, CD73 on the surface of murine 3T1 cells. On the procedure: as §2, §1, §3

On to “MEDI9447: IgG1 with CD730010-derived VL of SEQ ID NO: 68 and VH of SEQ ID NO: 82”, for which the “Percentage of CD73 remaining on the cell surface” value turned out to be 100% in assay [1] (0 h); 90% in assay [1] (0.25 h); 90% in assay [1] (0.5 h); 87% in assay [1] (1 h); 80% in assay [1] (2 h); 73% in assay [1] (4 h). Besides, the “CD73 either internalized or shed upon antibody binding” value in assay [1] (4 hours incubation) turned out to be 27%. Besides, the ka with Cynomolgus CD73 ECD stood at 2.71e+06 M⁻¹ s⁻¹. Also, at Cynomolgus CD73 ECD, the kd came out at 1.76e-05 s⁻¹. For the same substance, the pKd (usually −log10 of the Kd, conventionally taken in molar units) with native CD73, MK-1 cells is roughly 10.10; in the assay with native CD73, 4T1 cells, roughly 9.96.
